Assays:
[1] = cell-attached patch clamp, peak stretch-activated current, Piezo1-/- HEK293T; conditions: glycan lost; control: WT Piezo1-GFP
[2] = inactivation time constants, cell-attached patches; conditions: glycan lost; control: WT Piezo1-GFP
[3] = single-channel recordings at five voltages; conditions: glycan lost; control: WT Piezo1
[4] = immunogold TEM, membrane/cytoplasm labelling ratio; conditions: glycan lost; control: WT Piezo1
[5] = cell-attached patch clamp, split construct, Piezo1-/- HEK293T; conditions: glycan lost; control: WT split Piezo1
[6] = live cell anti-HA surface labelling, confocal; conditions: glycan lost; control: WT Piezo1 with extracellular HA tag
[7] = Fura-2 ratiometric Ca2+ imaging, 2 µM Yoda-1; conditions: glycan lost; control: WT Piezo1

Substance	other: channel current [1]	other: unitary conductance, other: unitary conductance [3]	other results
human Piezo1: N2331Q	no change		other: channel inactivation kinetics [2]: no change
human Piezo1: N892Q		no change	
human Piezo1: N658Q and N885Q	decreases		
human Piezo1: N2294Q/N2331Q (CapQQ)	decreases		localisation_or_trafficking [4]: decreases
human Piezo1: N885Q	decreases	no change	
human Piezo1: N658Q	decreases	no change	
human Piezo1: N1095Q		no change	
human Piezo1: N2294Q	no change		other: channel inactivation kinetics [2]: no change
human Piezo1: N295Q and N885Q	decreases		
human Piezo1: N2294Q and N2331Q			other: channel current [5]: abolishes
human Piezo1: N295Q		no change	
human Piezo1: N2294Q/N2331Q			localisation_or_trafficking [6]: abolishes; other: Yoda-1-evoked Ca2+ influx [7]: abolishes

Source: article PMC8421374
